Measured values published in patent publication US20180016346A1 (Kyowa Kirin, published 2018).
Substitutions are numbered along the chain they refer to.

Assays:
[1] = biological target: T1, FLAG-hPSMA, extracellular domain protein of hPSMA with a FLAG-tag at the N-terminus (human, UniProt Q04609 44-750); assay: phage ELISA, scFv phage clone on immobilized FLAG-PSMA
T1 construct: also called FLAG-PSMA; soluble hPSMA antigen
Procedure: The concentrated phage was monocloned and clones having the affinity to FLAG-PSMA were selected by ELISA. In ELISA, MAXISORP STARTUBE (manufactured by NUNC) in which the FLAG-PSMA of Example 5 described below was immobilized thereon, and a site not bound by FLAG-PSMA was blocked by using SuperBlock Blockig Buffer (manufactured by Thermo Fisher Scientific Inc.) was used.
Each phage clone was added to each well and allowed to react at room temperature for 30 minutes, and then each well was washed three times with PBS containing 0.1% Tween 20 (hereinafter referred to as PBS-T). Subsequently, a solution in which horseradish peroxidase-labeled anti-M13 antibody (manufactured by GE Healthcare) was diluted 5000 times with PBS-T containing 10% Block Ace (manufactured by Dainippon Pharma Co., Ltd.) was added to each well by 50 μL and incubated at room temperature for 30 minutes.

[2] = biological target: T2, human prostate specific membrane antigen (hPSMA), membrane form on cells (human, UniProt Q04609 1-750); assay: flow cytometry on hPSMA/L929 cells (FIG. 2)
T2 construct: endogenous on LNCaP clone FGC cells; also called membrane hPSMA
Procedure: (§1) The cells were suspended in a staining buffer [PBS containing 0.1% NaN₃ and 1% FBS] at a concentration of 1×10⁶ cells/mL, and dispensed in a round-bottom 96-well plate (manufactured by Becton Dickinson) by 100 μL/well. After the centrifugation (2000 rpm, 4° C., 2 minutes), each antibody obtained in Example 7 was added to the pellet obtained by removing the supernatant, and suspended, and then left stand at ice temperature for 30 minutes.
(§2) After the further centrifugation (2000 rpm, 4° C., 2 minutes), the pellet obtained by removing the supernatant was washed twice with 200 μL/well of the staining buffer. Thereafter, 1 μg/mL of RPE fluorescently labeled mouse anti-human antibody (hinge region) clone 4E3 antibody (manufactured by Southern Bioblot) was added thereto by 50 μL/well and incubated at ice temperature for 30 minutes. After washing twice with the staining buffer, the cells were suspended in 200 μL/well of the staining buffer, and the fluorescence intensity of each cell was measured with the flow cytometer FACSCANTO II (manufactured by Becton Dickinson). The obtained results are illustrated in FIG. 2 and FIG. 3.
hPSMA/L929 cells were stained with anti-TRAILR2 monoclonal antibody E11 antibody, anti-hPSMA monoclonal antibody PI134 antibody, or hTRAILR2-hPSMA bispecific antibody E11-CH1-PI101VH antibody, E11-CH1-PN7VH antibody or E11-CH1-PN170VH antibody. The obtained results are illustrated in FIG. 2.

[3] = biological target: T2, human prostate specific membrane …; assay: flow cytometry
[4] = biological target: T2, human prostate specific membrane …; assay: flow cytometry on hPSMA/PC3 cells against PC3 cells (no data disclosed)
[5] = biological target: T3, human TRAILR2 (tumor necrosis factor-related apoptosis inducing ligand receptor 2) (human, UniProt O14763 56-440); assay: flow cytometry on hTRAILR2/L929 cells (FIG. 3)
T3 construct: whole, on cells; The hTRAILR2/L929 cells are only cited from WO 2002/094880, and the construct expressed on them is not described here; On PC3 and LNCaP clone FGC cells the receptor is endogenous; also called hTRAILR2; death receptor 5
Procedure: as §1
as §2, with “3. […]” for “3.”

T1 sequence (Q04609 other isoform, or with tags, fused parts or gaps): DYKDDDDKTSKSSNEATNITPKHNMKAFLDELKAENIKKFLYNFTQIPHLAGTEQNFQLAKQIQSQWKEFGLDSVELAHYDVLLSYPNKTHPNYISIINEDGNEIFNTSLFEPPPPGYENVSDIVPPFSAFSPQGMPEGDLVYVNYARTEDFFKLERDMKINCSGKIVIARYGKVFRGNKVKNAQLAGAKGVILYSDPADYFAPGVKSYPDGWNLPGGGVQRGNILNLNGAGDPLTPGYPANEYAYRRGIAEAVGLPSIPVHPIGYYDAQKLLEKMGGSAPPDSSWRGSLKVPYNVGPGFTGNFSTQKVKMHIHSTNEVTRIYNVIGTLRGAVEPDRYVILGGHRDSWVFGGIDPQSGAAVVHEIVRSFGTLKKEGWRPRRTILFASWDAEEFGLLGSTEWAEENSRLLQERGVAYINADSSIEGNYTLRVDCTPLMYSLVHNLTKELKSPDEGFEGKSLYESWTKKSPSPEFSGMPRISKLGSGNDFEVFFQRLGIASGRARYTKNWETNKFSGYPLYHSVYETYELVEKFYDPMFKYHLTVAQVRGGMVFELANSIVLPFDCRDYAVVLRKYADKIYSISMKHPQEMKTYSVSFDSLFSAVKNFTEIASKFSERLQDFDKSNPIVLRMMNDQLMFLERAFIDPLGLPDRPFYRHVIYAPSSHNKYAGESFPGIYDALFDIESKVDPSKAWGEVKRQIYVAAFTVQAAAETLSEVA
T2 sequence (Q04609 whole entry): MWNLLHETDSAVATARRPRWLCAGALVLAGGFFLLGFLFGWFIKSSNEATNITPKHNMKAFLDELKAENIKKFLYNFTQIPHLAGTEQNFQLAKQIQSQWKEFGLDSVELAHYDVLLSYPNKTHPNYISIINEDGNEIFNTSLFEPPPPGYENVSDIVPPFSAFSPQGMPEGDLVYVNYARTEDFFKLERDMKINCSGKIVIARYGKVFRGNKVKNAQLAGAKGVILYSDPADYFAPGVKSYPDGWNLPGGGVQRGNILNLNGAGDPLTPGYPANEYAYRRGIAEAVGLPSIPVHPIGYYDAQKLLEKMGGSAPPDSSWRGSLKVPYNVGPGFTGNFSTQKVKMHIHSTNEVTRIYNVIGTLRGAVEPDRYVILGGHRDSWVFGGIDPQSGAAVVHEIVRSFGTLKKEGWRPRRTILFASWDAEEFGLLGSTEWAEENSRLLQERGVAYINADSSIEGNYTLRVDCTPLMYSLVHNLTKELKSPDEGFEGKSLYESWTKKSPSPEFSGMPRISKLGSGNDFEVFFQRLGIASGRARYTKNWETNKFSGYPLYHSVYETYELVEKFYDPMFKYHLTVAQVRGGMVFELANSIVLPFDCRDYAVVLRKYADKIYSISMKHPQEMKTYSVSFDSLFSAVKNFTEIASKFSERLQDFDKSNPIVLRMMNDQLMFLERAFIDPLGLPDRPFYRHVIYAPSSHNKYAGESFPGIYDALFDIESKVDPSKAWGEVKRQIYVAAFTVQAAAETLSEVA

B1: PN7 phage clone (scFv displayed on M13 phage) (scFv, V domains shown)
VH: EVQLVQSGAEVKKPGASVKVSCKASGYTFTTYDINWVRQATGQGLEWMGWMNPNSGYTGYAQKFQGRVTMTRDTSISTAYMELSSLRSEDTAVYYCARTNWESWYFDLWGRGTLVTVSS
VL: EIVLTQSPATLSLSPGERATLSCRASQSVSSFLAWYQQKPGQAPRLLIYDASNRATGIPARFSGSGSGTDFTLTISSLEPEDFAVYYCQQRSNWPLTFGPGTKVDIKR
notes: Tested as an scFv on M13 phage (phagemid pCANTAB 5E)
Q: Does B1 bind [1]?
A: Result: binds

B2: hTRAILR2-hPSMA bispecific antibody E11-CH1-PN170VH antibody (bispecific antibody, IgG4)
heavy: not shown
VL: B1 VL
notes: domain: constant region; The heavy chain is E11 VH, an IgG4 CH1 linker and PN170 VH, followed by the constant region of the vector; All four light chains carry E11 VL
Q: Does B2 bind [2]?
A: Result: binds

B3: hTRAILR2-hPSMA heterobispecific antibody E11_PN7 Hetero antibody (bispecific antibody, human IgG1)
heavy 1: not shown
heavy 2: not shown
VL: B1 VL
notes: also called hE11_PN7 Hetero antibody
Q: Does B3 bind [3]?
A: Result: binds

B4: PI105 phage clone (scFv displayed on M13 phage) (scFv, V domains shown)
VH: B1 VH with M48L, S55N, D73N, S77G, S84N, E102V, S103Y
VL: EIVLTQSPATLSLSPGERATLSCRASQSVSSFLAWYQQKPGQAPRLLIYDASNRATGIPARFSGSGSGTDFTLTISSLEPEDFAVYYCQQRSNWPLTFGPGTKVDIK
notes: Tested as an scFv on M13 phage (phagemid pCANTAB 5E); not shown: scFv linker, domain order, tag and M13 coat-protein fusion of phagemid pCANTAB 5E; copies: 1 + 1
Q: Does B4 bind [1]?
A: Result: binds

B5: PN170 phage clone (scFv displayed on M13 phage) (scFv, V domains shown)
VH: EVQLVQSGAEVKKPGASVKVSCKASGYTLTSYDINWVRQATGQGLEWMGWMNPNSGYTGYAQKFQDRVTMTRNTAINTAYMELSSLRSEDTAVYYCAREAGYDGIWYFDLWGRGTLVTVSS
VL: B1 VL
notes: as for B1
Q: Does B5 bind [1]?
A: Result: binds

B6: hTRAILR2-hPSMA bispecific antibody E11-ML-PI101VH antibody (bispecific antibody, IgM)
heavy: not shown
VL: B1 VL
notes: domain: constant region; All four light chains carry E11 VL
Q: Does B6 bind [4]?
A: Result: binds

B7: anti-hPSMA monoclonal antibody PI134 antibody (antibody, human IgG1, V domains shown)
VH: B1 VH with E1Q, S55N, D73N, E102V, S103Y
VL: B1 VL
notes: Its VL is the same as that of the E11 antibody
Q: Does B7 bind [2]?
A: Result: binds

Q: Does B7 bind [5]?
A: Result: no binding

B8: hTRAILR2-hPSMA bispecific antibody E11-CH1-PI115VH antibody (bispecific antibody, IgG4)
heavy: not shown
VL: B1 VL
notes: domain: constant region; The heavy chain is E11 VH, an IgG4 CH1 linker and PI115 VH, followed by the constant region of the vector; All four light chains carry E11 VL
Q: Does B8 bind [4]?
A: Result: binds

B9: hTRAILR2-hPSMA bispecific antibody fragment E11-CH1-PN7VH Fab (bispecific antibody)
heavy: QLQLQESGPGLVKPSETLSLTCTVSGGSIISKSSYWGWIRQPPGKGLEWIGSIYYSGSTFYNPSLKSRVTISVDTSKNQFSLKLSSVTAADTAVYYCARLTVAEFDYWGQGTLVTVSSASTKGPSVFPLAPCSRSTSESTAALGCLVKDYFPEPVTVSWNSGALTSGVHTFPAVLQSSGLYSLSSVVTVPSSSLGTKTYTCNVDHKPSNTKVDKRVEVQLVQSGAEVKKPGASVKVSCKASGYTFTTYDINWVRQATGQGLEWMGWMNPNSGYTGYAQKFQGRVTMTRDTSISTAYMELSSLRSEDTAVYYCARTNWESWYFDLWGRGTLVTVSSASTKGPSVFPLAPCSRSTSESTAALGCLVKDYFPEPVTVSWNSGALTSGVHTFPAVLQSSGLYSLSSVVTVPSSSLGTKTYTCNVDHKPSNTKVDKRVDYKDDDDKHHHHHH
VL: B1 VL
notes: The hinge region is deleted from E11-CH1-PN7VH F(ab′)2; The light chains carry E11 VL, as in the F(ab′)2
Q: Does B9 bind [3]?
A: Result: binds

B10: hTRAILR2-hPSMA bispecific antibody E11-GL-PI134VH antibody (bispecific antibody, IgG4)
heavy: not shown
VL: B1 VL
notes: domain: constant region; All four light chains carry E11 VL; also called E11-GL-PI1134VH
Q: Does B10 bind [2]?
A: Result: binds

B11: hTRAILR2-hPSMA bispecific antibody fragment E11-CH1-PN7VH F(ab′)2 (bispecific antibody)
heavy: QLQLQESGPGLVKPSETLSLTCTVSGGSIISKSSYWGWIRQPPGKGLEWIGSIYYSGSTFYNPSLKSRVTISVDTSKNQFSLKLSSVTAADTAVYYCARLTVAEFDYWGQGTLVTVSSASTKGPSVFPLAPCSRSTSESTAALGCLVKDYFPEPVTVSWNSGALTSGVHTFPAVLQSSGLYSLSSVVTVPSSSLGTKTYTCNVDHKPSNTKVDKRVEVQLVQSGAEVKKPGASVKVSCKASGYTFTTYDINWVRQATGQGLEWMGWMNPNSGYTGYAQKFQGRVTMTRDTSISTAYMELSSLRSEDTAVYYCARTNWESWYFDLWGRGTLVTVSSASTKGPSVFPLAPCSRSTSESTAALGCLVKDYFPEPVTVSWNSGALTSGVHTFPAVLQSSGLYSLSSVVTVPSSSLGTKTYTCNVDHKPSNTKVDKRVESKYGPPCPPCPDYKDDDDKHHHHHH
VL: B1 VL
notes: CH2 and CH3 are deleted; The heavy chain carries a C-terminal FLAG-tag and His-tag and dimerises through cysteine in the hinge region; All light chains carry E11 VL
Q: Does B11 bind [3]?
A: Result: binds

B12: hTRAILR2-hPSMA bispecific antibody E11-CH1-PI134VH antibody (bispecific antibody, IgG4)
heavy: not shown
VL: B1 VL
notes: domain: constant region; All four light chains carry E11 VL; also called E11-CH1-PI134 antibody
Q: Does B12 bind [2]?
A: Result: binds

B13: hTRAILR2-hPSMA bispecific antibody E11-CH1-PI108VH antibody (bispecific antibody, IgG4)
heavy: not shown
VL: B1 VL
notes: domain: constant region; The heavy chain is E11 VH, an IgG4 CH1 linker and PI108 VH, followed by the constant region of the vector; All four light chains carry E11 VL
Q: Does B13 bind [4]?
A: Result: binds

B14: hTRAILR2-hPSMA bispecific antibody E11-CH1-PI143VH antibody (bispecific antibody, IgG4)
heavy: not shown
VL: B1 VL
notes: domain: constant region; The heavy chain is E11 VH, an IgG4 CH1 linker and PI143 VH, followed by the constant region of the vector; All four light chains carry E11 VL
Q: Does B14 bind [4]?
A: Result: binds

B15: hTRAILR2-hPSMA bispecific antibody E11-CH1-PI127VH antibody (bispecific antibody, IgG4)
heavy: not shown
VL: B1 VL
notes: domain: constant region; The heavy chain is E11 VH, an IgG4 CH1 linker and PI127 VH, followed by the constant region of the vector; All four light chains carry E11 VL
Q: Does B15 bind [4]?
A: Result: binds

B16: hTRAILR2-hPSMA bispecific antibody E11-CH1-PI118VH antibody (bispecific antibody, IgG4)
heavy: not shown
VL: B1 VL
notes: domain: constant region; The heavy chain is E11 VH, an IgG4 CH1 linker and PI118 VH, followed by the constant region of the vector; All four light chains carry E11 VL
Q: Does B16 bind [4]?
A: Result: binds

B17: hTRAILR2-hPSMA bispecific antibody E11-CH1-PI101VH antibody (bispecific antibody, IgG4)
heavy: not shown
VL: B1 VL
notes: domain: constant region; The heavy chain is E11 VH, an IgG4 CH1 linker and PI101 VH, followed by the constant region of the vector; All four light chains carry E11 VL
Q: Does B17 bind [2]?
A: Result: binds

B18: hTRAILR2-hPSMA bispecific antibody E11-CH1-PL223VH antibody (bispecific antibody, IgG4)
heavy: not shown
VL: B1 VL
notes: domain: constant region; The heavy chain is E11 VH, an IgG4 CH1 linker and PL223 VH, followed by the constant region of the vector; All four light chains carry E11 VL; also called E11-CHI-PL223VH
Q: Does B18 bind [4]?
A: Result: binds

B19: anti-hPSMA monoclonal antibody 2A10 antibody (antibody, human IgG1, V domains shown)
VH: EVQLVQSGAEVKKPGESLKISCKGSGYSFTSNWIGWVRQMPGKGLEWMGIIYPGDSDTRYSPSFQGQVTISADKSISTAYLQWSSLKASDTAMYYCARQTGFLWSSDLWGRGTLVTVSS
VL: IQLTQSPSSLSASVGDRVTITCRASQDISSALAWYQQKPGKAPKLLIYDASSLESGVPSRFSGYGSGTDFTLTINSLQPEDFATYYCQQFNSYPLTFGGGTKVEIK
notes: Expressed from vector N5KG1 (N5KG1_2A10), the human IgG1 type vector
Q: Does B19 bind [2]?
A: Result: binds
